Assay results taken from paper PMC3582566.

Target: S. mutans VicK (aa31-450), entire intracellular region (S. mutans)
Assay: SEC-MALS; VicK at ~4 mg/ml resolved on a size exclusion column (Shodex KW-802.5) in 50 mM HEPES (pH 7.0), 200 mM Na2SO4 at 25°C; DAWN HELEOS II laser photometer; BSA as control

stoichiometry N: 2
Substance: S. mutans VicK (aa31-450), entire intracellular region (domain or fragment)
